The series in a line: yeast display, Sf9 membrane polyspecificity reagent, FACS + sequencing; frameworks hold sequencing errors. A digest of the protocol: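 Synthetic nanobody libraries on Saccharomyces cerevisiae BJ5465 were galactose-induced for 36–48 hours, stained 1 hour at 4 °C with 10% biotinylated, detergent-solubilized Sf9 membrane reagent and enriched on streptavidin microbeads. FACS then separated cells into low and high (top ~1%) gates by anti-HA (expression) and streptavidin (reagent binding) fluorescence. Genes were colony-PCR amplified, MiSeq 2 × 250 sequenced and CDR-length filtered. A clone's polyreactivity label is that of its gate of origin.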
With “QVQLVESGGGLVQAGGSLRLSCAASGRIFWTYAMGWYRHAPGKERELVAVISIGGTTYYADTVKGRFTISRDNAKNTVYLQMNSLKPEDTAVYYSAAPPSNATGFLSYDYWGQGTQVTVSS”, the “polyreactivity (PSR sort gate)” value is given as “low polyreactivity”.
The same measure for “QVQLVESGGGLVQAGGSLRLSCAASGRIFWVYAMGGYRQAPGKERELVAAINTSVGRTHYADSVKGRFTISRDNAKNTVYLQMNSLKPEDTAVYYCAADVKRYGWEYGYWGQGTQVTVSS”: “low polyreactivity”; for “QVQLVESGGGLVQAGGSLRLSCAASGRIFWVYAMGWSRQAPGKERERVAAITWRGVSTYFADSVKGRFTISRDNAKNTVYLQMNSLKPEDTAVYYCAVSLYGYSGNYGPYWYDYWGQGTQVTVSS”: “low polyreactivity”.
Under “QVQLVESGGGLVQAGGSLRLSCAASGRIFWYNAMGWSRQAPGKERELVAAISSIDGTTYYADSLKGRFTISRDNAKNTFYLQMNSLKPEDTAVYYCAAEDPADQYDYWGQGTQVTVSS” stands “high polyreactivity”; under “QVQLVESGGGLVQAGGSLRLSCAASGRIFWYNAMGWSRQAPGKESELVAAISWRGSRTYYADSVKGRFTISRDNAKNTVYLQMNSLKPEDTAVYYCAADPDVYAYYGYDYWGQGTQVTVSS”, “high polyreactivity”; under “QVQLVESGGGLVQAGGSLRLSCAASGRIFWYYGMGWYRQAPGKERELVAAIRGGGSTYYADSVKGRFTISRDNAKNTVYLQMNSLKPEETAVYYCAVDWSRFYNRGGDYWGQGTQVTVSS”, “high polyreactivity”.
Turning to “QVQLVESGGGLVQAGGSLRLSCAASGRIFYANAMGWYRQAPGKERELVAAISQSGGSTFYADSVKGRFTISRDNAKNTVYLQMNSLKPEDTAVYYCATEYYGPVYDLDYDYWGQGTQVTVSS”, the “polyreactivity (PSR sort gate)” value is “low polyreactivity”.
For the sequence “QVQLVESGGGLVQAGGSLRLSCAASGRIFYANAMGWYRQAPGKERELVAAISSGGSTYYADSVKGRFTISRDNAKNTVYLQMNSLKPEDTAVYYCAVYTHKKVRPEYDYWGQGTQVTVSS”, the “polyreactivity (PSR sort gate)” value is recorded as “low polyreactivity”.
In the case of “QVQLVESGGGLVQAGGSLRLSCAASGRIFYANAMGWYRQAPGKERELVAAISWSGGSTYYADSVKGRFTISRDNAKNTVYLQMNSLKPEDTAVYYCNALGRSYRSRRYDYWGQGTQVTVSS”, the “polyreactivity (PSR sort gate)” value is “high polyreactivity”.
As for “QVQLVESGGGLVQAGGSLRLSCAASGRIFYANAMGWYRQAPGKERELVASISARGGSTYYADSVKGRFTISRDNAKNTVYLQMNSLKPEDTAVYYCAKRDTFKPYASLYDYWGQGTQVTVSS”, the “polyreactivity (PSR sort gate)” value was “high polyreactivity”.
The same measure for “QVQLVESGGGLVQAGGSLRLSCAASGRIFYANDMGWYRQAPGKERELVAAITNTVSTTYADSVKGRFTISRDNAKNTVYLQMNSLKPEDTAVYYCNADDPYVPKADMGYWGQGTQVTVSS”: “low polyreactivity”.
With “QVQLVESGGGLVQAGGSLRLSCAASGRIFYANDMGWYRQAPWKERELVAAITNTVSTTYADSVKGRFTISRDNAKNTVYLQMNSLKPEDTAVYYCNGDDPYVPKADMGYWGQGTQVTVSS”, the “polyreactivity (PSR sort gate)” value is “low polyreactivity”.
“QVQLVESGGGLVQAGGSLRLSCAASGRIFYANTMGWYRQAPGKEWELVAAITSGGSTNYADSVKGRFTISRDNAKNTVYGQKNSLKPEDTAVYYCATKQRRGYWGYITAYARYYWGQGTQVTVSS”: the “polyreactivity (PSR sort gate)” value is on record as “high polyreactivity”.
As to “QVQLVESGGGLVQAGGSLRLSCAASGRIFYAYAMGWYRKAPGKERELVAAITETGGNTYYADSVKGRFTISRDNAKNTVYLQMNSLKPEDTAVYYCARKGRRTHHYGLYSSSVYYWGQGTQVTVSS”, the “polyreactivity (PSR sort gate)” value is “low polyreactivity”.
The same measure for “QVQLVESGGGLVQAGGSLRLSCAASGRIFYAYAMGWYRPAPGNERELVAAITISASSTYYADSVKGRFTISRDNAKNTVYLQMNSLKPEDTAVSYCAAAYRRPWWYSYRYGYWGQGTQVTVSS”: “high polyreactivity”; for “QVQLVESGGGLVQAGGSLRLSCAASGRIFYAYAMGWYRQAPGKERELVARISYSGGNTYYADSVKGRFTISRDNAKNTVYLQMNSQKPEDTAVYYCNTDYRARFGYWGQGTQVTVSS”: “high polyreactivity”; for “QVQLVESGGGLVQAGGSLRLSCAASGRIFYAYAMGWYRQAPGKERELVATITGIGGSTYADSVKGRFTISRDNAKNTVNLQMNSLKPEDTAVYYCNAERGVYWGRYPYKYDYWGQGTQVTVSS”: “low polyreactivity”.
The same measure for “QVQLVESGGGLVQAGGSLRLSCAASGRIFYAYAMGWYRQAPGKERELVATITYGGGSTYYADSVKGRFTISRDNAKNTVDLQMNSLKPEATAVYYCAADRTGSTLYTIRYYYWGQGTQVTVSS”: “low polyreactivity”; for “QVQLVESGGGLVQAGGSLRLSCAASGRIFYDNAMGWYSQAPGKERELVAAIRIGGSTNYADSVKGRFTISRDNAKNTVYLLMNSLKPEDTAVYYCNRSDNPDSYYPDSVWGDSWGQGTQVTVSS”: “low polyreactivity”.
Under “QVQLVESGGGLVQAGGSLRLSCAASGRIFYDYDMGWYRQAPGKERELVAAISYGGGTTYYADSVKGRFTISRDNAKNTVYLQMTSLKPEDTAVYYCAAEYASGSYDEYDYWGQGTQVTVSS” stands “low polyreactivity”; under “QVQLVESGGGLVQAGGSLRLSCAASGRIFYEYAMGWYRQAPGKEREVVAAISNSGGSTSYADSVKGRFSISRDNATNTDYLQMNSLQPEDTAVSYCAAGSHSGRAYYYWGEGTQVTVSS”, “high polyreactivity”; under “QVQLVESGGGLVQAGGSLRLSCAASGRIFYFNAMGWYRQAPGKERELVAAISGSGGDTYYADSVKGRFTISRDNAKNTVYLQMNSLKPEDTAVYYCAAEVYTWGQGTQVTVSS”, “low polyreactivity”.
Regarding “QVQLVESGGGLVQAGGSLRLSCAASGRIFYFNAMGWYRQAPGKERELVADMSSGGRTNYADSVKGRFTISRDNEKNSVYLQMNSLKPEDSAVYYWIAEPYTSSVGYRGYDFDDWGQGTQVTVSS”, the “polyreactivity (PSR sort gate)” value is listed as “low polyreactivity”.
“QVQLVESGGGLVQAGGSLRLSCAASGRIFYFNTMGWSRQAPGKERELVAAISKNGGSTYYADSVKGRFTISRDTAKNTVYLQMNSLKPEDTAVYYCAKTRRLSPYDYWGQGTQVTVSS”: the “polyreactivity (PSR sort gate)” value is “high polyreactivity”.
Consider “QVQLVESGGGLVQAGGSLRLSCAASGRIFYFYAMGWYRQAPGKERELVAAINIGGSTNYADSVKGRFTISRDNAKNTVYLQMNSLKPEDTAVYYCNAEAYSRSDYYRYDYWGQGTQVTVSS”, for which the “polyreactivity (PSR sort gate)” value is given as “low polyreactivity”.
The same measure for “QVQLVESGGGLVQAGGSLRLSCAASGRIFYGNAMGWYRQAPGKERQLVAAITDGGSTNYADSVKGRFTISRDNAKNTVYLQMNSLKPEDTAVYYCAKDYRGSYYKYDYWGQGTQVTVSS”: “low polyreactivity”; for “QVQLVESGGGLVQAGGSLRLSCAASGRIFYGYAMGWYRQAPGKERELVAAITRSGGSTYYADSVKGRFTISRDTAKNTVYLQMNSLKPEDTAVYYCNAQWGYRTSFDYGYWGQGTQVTVSS”: “low polyreactivity”.
The same measure for “QVQLVESGGGLVQAGGSLRLSCAASGRIFYGYAMGWYRQAPGKERELVAAITSGSRTNYADSVKGRFTISRDNAKNTVYLQMNSLKPEDTAVYYCHSRYGSYLYSLVHNTRYDYWGQGTQVTVSS”: “low polyreactivity”.
The same measure for “QVQLVESGGGLVQAGGSLRLSCAASGRIFYGYAMGWYRQAPGKERELVAAITVSGGDTYYADSVKGRFTISRDNAKNTVYLQMNSLKPEDTAVYYCAAKADKRLDYWGQGTQVTVSS”: “low polyreactivity”.
On to “QVQLVESGGGLVQAGGSLRLSCAASGRIFYGYARGWYRQAPGKDRELVAAIRWYGGNTYYADSVKGRFTISRDNAKNTVYLQMNSLKPEDTAVYYCNARTEYASSRYYYWGQGTQVTVSS”, for which the “polyreactivity (PSR sort gate)” value is on record as “high polyreactivity”.
The same measure for “QVQLVESGGGLVQAGGSLRLSCAASGRIFYGYTMGWYRQAPGKERELVASIDYSTGRTYYADSVKGRFTISRDNAKNTVYLQMNSLKPEDTAVYYCNADPNYSLLRYDYWGQGTQVTVSS”: “high polyreactivity”; for “QVQLVESGGGLVQAGGSLRLSCAASGRIFYGYTMGWYRQAPGKERELVASITIRGSRTYYADSVKGRFTISRDNAKNTVYLQMNSLKPEDTAVYYCAADFVPARTVHRYDYWGQGTQVTVSS”: “low polyreactivity”.
Under “QVQLVESGGGLVQAGGSLRLSCAASGRIFYGYVMGWYRQAPGKERELVAAISWSAGRTYYADSVKGRFTISRDNAKNTVYLQMNSLKPEDTAVYYCAARYFSLYVWSTFEYWGQGTQVTVSS” stands “high polyreactivity”; under “QVQLVESGGGLVQAGGSLRLSCAASGRIFYHNTMGWYRQAPGKERELVAAITTSGSTYYADSVKGRFTISRDNAKNSVYLQMNSLKPEDTSVYYCAARALRWFNYWGQGTQVTVSS”, “high polyreactivity”.
Take “QVQLVESGGGLVQAGGSLRLSCAASGRIFYHYAMGGYRPAPGKERELVAAISSSTGRSYYADSVKGRFTFSRDNAKNTVYLQMNSLKPEDSAVYYCATTPGYYGYISPRIRLYDYWGQGTQVTVSS”: the “polyreactivity (PSR sort gate)” value was “high polyreactivity”.
Under “QVQLVESGGGLVQAGGSLRLSCAASGRIFYHYAMGWYRQAPGKERELVAAITWSGVSTYYADSVKGRFTISRDNAKNTVYLQMNSLKPDDTAVYYCATSSRYGVRRYSRGSWGQGSQVTVSS” stands “high polyreactivity”.
The same measure for “QVQLVESGGGLVQAGGSLRLSCAASGRIFYHYAMGWYRQAPGKERELVAVIRSTGSTNYADSVKGRFTISRDNAKNTVYFQLKSLIPEDTAVYYCAVRRATFSYWYFNGGYWGQGTQVTVSS”: “high polyreactivity”; for “QVQLVESGGGLVQAGGSLRLSCAASGRIFYINALGWYRQAPGKERELVASITGSGDSTYYADSVKGRFTISRDNAKNTVELQMNSLKPEDTAVYYCAARTYYYYGPRYYYWGQGTQVTVSS”: “low polyreactivity”; for “QVQLVESGGGLVQAGGSLRLSCAASGRIFYIYAMGWYRQAPGKERELVASITSSGTSTYADSVKGRFTISRDNAKNTVYLQMNSLKPEDTAVYYCNARGYPKSWRYSRGYEYWGQGTQVTVSS”: “low polyreactivity”.
Regarding “QVQLVESGGGLVQAGGSLRLSCAASGRIFYKYAKGWYRQAPGKERELVAAITTSGGSTYYADSVKGRFTISRDNAKNTVYLQMKSLKPEDTAVYYCARDLNGRFLTTGRGMDYWGQGTQVTVSS”, the “polyreactivity (PSR sort gate)” value was “high polyreactivity”.

The values are drawn from the nanobody polyreactivity screen of Harvey et al. (2022).
